Results taken from the nanobody polyreactivity screen of Harvey et al. (2022).

experiment: yeast display, Sf9 membrane polyspecificity reagent, FACS + sequencing; frameworks hold sequencing errors
Outline: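 Nanobodies came from a synthetic yeast display library in Saccharomyces cerevisiae BJ5465, induced with galactose for 36–48 hours and stained for 1 hour at 4 °C with 10% biotinylated, detergent-solubilized Sf9 membrane reagent. Cells were enriched on streptavidin microbeads and then FACS-sorted, with low and high (top ~1%) gates set on anti-HA fluorescence for expression and streptavidin fluorescence for reagent binding. Each polyreactivity label reflects the gate a clone came from. Genes were amplified by colony PCR, sequenced by MiSeq 2 × 250 and filtered by CDR length.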

Sequence	polyreactivity (PSR sort gate)
QVQLVESGGGLVQAGGSLRLSCAAYGSIIHANAMGWYRQAPGKERELVAAITGDGSTYYADSVKGRFTISRDNAKNTVYLQMNSLKPEDTAVYYCNAEYYSTYDSWGQGTQVTVSS	low polyreactivity
QVQLVESGGGLVQAGGSLRLSCAAYGSILGIYAMGGYRQAPGKERELVAAIRTSSASTYYADSVKGRFTISRDNAKNTVYLQMNSLKPEDSAVYYCAAYAFSYTPYYSWGQGTQVTVSS	high polyreactivity
QVQLVESGGGLVQAGGSLRLSCAAYGSTFFLYAMGWYRQAPGKVRELVAAITYTDGDTYYADSVKGRFTISRDNAKHTVYLQMNSLKPEDTAVYYCNAGGDEPVYGSGYDYWGQGTQVNVSS	low polyreactivity
QVQLVESGGGLVQAGGSLRLSCAAYGSTFRRNTMGWYRQAPGKERELVAGISSSGGSTYYADSVKGRFTISRDTAMNTVYLQMNSLKPEDTAVYYCAARYYVSYVGYNYWGQCTQVTVSS	high polyreactivity
QVQLVESGGGLVQAGGSLRLSCAAYGSTFSLNTMGWYRQAPGKERELVAAITSGGSTNYADSVKGRFTISRDNAKNTVYLQMNSLKPEDTSVYYCAATPGRGGGYNYWGQGTQVTVSS	low polyreactivity
QVQLVESGGGLVQAGGSLRLSCAAYGSTFTDYDMGWYRQAPGKERELVAAITSGGSTNYADSVKGRFTISRDNAKNTVYLQMNSLKPEDTAVYYCAAADADRKYDYWGQGTQVTVSS	low polyreactivity
QVQLVESGGGLVQAGGSLRLSCAAYGSTLTRNAMGWYRQAPGKERELVATITATGGSTYYADSVKGRFTISRDNAKNTVYLQMTSLKPEDTAVYYCNKVYREYSLSYWSPTHWAYYYWGQGTQVTVSS	low polyreactivity
QVQLVESGGGLVQAGGSLRLSCAAYGYTFGYYTMGWYRQAPWKERQLVASIDSGGGTNYADSVKGRFTISRDNAKNTVYLQMNSLKPEDTAVYYCAAESPLYWVDDFESGWRYYYWGQGTQVTVSS	low polyreactivity
QVQLVESGGGLVQAGGSLRLSCADSGFIFLGNARGWYRQAAGKERELVAASSSGGSTYADSVKGRFTISRDNAKNTVYLQMNSLKPEDTAVYYCALDPPFPAQNYHEDDYWGQGTQVTVAS	low polyreactivity
QVQLVESGGGLVQAGGSLRLSCADSGFIFWVYAMGWYRQAPGKERELVAAITSGGGSTYYADSVKGRFTISRDNAKNTVYLQMNSLKPEDTAVYYCATSLYTDNSWENYWGQGTQVTVSS	high polyreactivity
QVQLVESGGGLVQAGGSLRLSCADSGFIIFRYAMGWYRQAPGKERELVAAITDDGSTYADSVKGRFTISRDNAKNTVYLQMNSLKPEDTAVYYCNVQSKSSYWWFGYDYWGQRTQVTVSS	low polyreactivity
QVQLVESGGGLVQAGGSLRLSCADSGFTFATYAMGWYRQAPGKKGRLVAAISNAGSTKYADSVKGRFTISRDNAKNTFYLQLNSLKPEDTAVYYCAASTLYASYYYLYYYWGQGTQVTVSS	high polyreactivity
QVQLVESGGGLVQAGGSLRLSCADSGFTFCSYTMGWYRQAPGKERELVAAITGGGNTKYADSVKGRFTISRDNAKNTFYLQMISLKPEDSAVYYCARLSRYKSYYTSRFDYWGQGNQVTVSS	high polyreactivity
QVQLVESGGGLVQAGGSLRLSCADSGFTFGVYVMGWYRQAPAKERELVAAISRSGGSTYYADSVKGRFTISRDKAKNTVYLQMNCLKPEETAVYYCNADRLVSYRAGEYDYWGQGTQVTVSS	high polyreactivity
QVQLVESGGGLVQAGGSLRLSCADSGFTFKSYTMGWYRQAPGKERELVAAISRRDGSTYYADSVKGRFTISRDNAKNTVYLQMNSLKPEDTAVYYCAKVWYGDRNIDRYDYWGQGTQVTVSS	high polyreactivity
QVQLVESGGGLVQAGGSLRLSCADSGFTFSWYTMGWYRQAPGKERELVAALTVSGGSTYYADSVKGRFTISRDNAKNTVYLQMNSLKPEDTAVYYCNAQDPFTYYSSSPTYDYWGQGTQVTVSS	low polyreactivity
QVQLVESGGGLVQAGGSLRLSCADSGFTFWYYDMGWYRQAPGKERELVAAITNGGRTYYADSVKGRFTISRDNAKNTVYLQMNSLKPEDTAVYYCAVLGGHGFYQGDYWGQGTQVTVSS	high polyreactivity
QVQLVESGGGLVQAGGSLRLSCADSGFTYAYYVMGWYRQAPGKERELVAAISISGGRTYYADSVKGRFTISRDNAKNTVYLQMNSLKPEDTAVYYCAADRRTDGHDYWGQGTQVTVSS	high polyreactivity
QVQLVESGGGLVQAGGSLRLSCADSGGTFESYAMGWYRQAPGKERELVAAITGRGGRTYYADSVKGRFTISRDNAKNTVYLQRNSLKPEDTAVYYCAARSPPRGYSRILDYWGQGTQVTVSS	high polyreactivity
QVQLVESGGGLVQAGGSLRLSCADSGGTFFGYAMGWYRQAPGKERELVAAIRWSDGRTYYADSVKGRFTISRDNAKNTVFLQMNSLKPEDTAVYYCNADDARLFDYWGQGTQVTVSS	low polyreactivity
QVQLVESGGGLVQAGGSLRLSCADSGIIFKGYDMGWYSQPPGKEREVVAAIYSGSTNYADSVKGRFTISRDNAKNTVYLQMNSLKPEDTAVYYCNSDLGRATFYQRVFIERGGYWGQGTQVTVSS	low polyreactivity
